The values below come from US20150258192A1, “COMPOSITIONS AND METHODS FOR PREVENTING OR TREATING CHRONIC LUNG ALLOGRAFT DYSFUNCTION (CLAD) AND IDIOPATHIC PULMONARY FIBROSIS (IPF)” (priority 2014, published 2015).

No end group written: not given here.

What all share (assay): Kinase Profiling Assay
Holding throughout (assay type): biochemical
Common to all, as to conditions: peptide 100 μM

One assay concerns the target T1, MSK1(h) (Homo sapiens, UniProt O75582).
T1 construct: purchased Millipore
Put shortly:
(§1)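 Scintillation counting quantifies radiolabeled, positively charged substrate retained on a negatively charged filter after kinase reaction with labeled ATP; inhibitor peptide present.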

The next assay addresses T2, Syk(h) (Homo sapiens, UniProt P43405).
T2 construct: purchased Millipore
Put shortly: as §1

The target of the next assay is T3, SGK(h) (Homo sapiens, UniProt O00141).
T3 construct: purchased Millipore
T3 sequence (O00141 1-431): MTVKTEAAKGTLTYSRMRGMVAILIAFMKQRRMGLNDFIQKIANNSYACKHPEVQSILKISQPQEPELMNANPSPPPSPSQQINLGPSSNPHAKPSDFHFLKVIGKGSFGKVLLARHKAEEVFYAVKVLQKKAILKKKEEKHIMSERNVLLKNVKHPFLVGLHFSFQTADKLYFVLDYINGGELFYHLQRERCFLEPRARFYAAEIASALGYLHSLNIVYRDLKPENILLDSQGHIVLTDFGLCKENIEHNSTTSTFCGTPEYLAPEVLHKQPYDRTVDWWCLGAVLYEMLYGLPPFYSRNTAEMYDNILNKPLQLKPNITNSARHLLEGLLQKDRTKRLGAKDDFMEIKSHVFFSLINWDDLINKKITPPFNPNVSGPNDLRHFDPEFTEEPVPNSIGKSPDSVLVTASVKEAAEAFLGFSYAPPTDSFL
The method in brief: as §1

The target of the next assay is CLK3(h) (Homo sapiens, UniProt P49761). The method in brief:
as §1

A further assay addresses Arg(h) (Homo sapiens, UniProt P42684). Put shortly:
as §1

The target of another assay is Pim-1(h) (Homo sapiens, UniProt P11309). The method in brief:
as §1

The target in the next assay is PDGFRα(V561D)(h) (Homo sapiens, UniProt P16234, V561D). Put shortly:
as §1

The target of a further assay is Ret(h) (Homo sapiens, UniProt P07949). The method in brief: as §1
Another assay addresses Rsk2(h) (Homo sapiens, UniProt P51812). The method in brief: as §1
For a further assay, the target named is T4, SAPK3(h) (Homo sapiens, UniProt P53778).
T4 construct: purchased Millipore
T4 sequence (P53778 1-367): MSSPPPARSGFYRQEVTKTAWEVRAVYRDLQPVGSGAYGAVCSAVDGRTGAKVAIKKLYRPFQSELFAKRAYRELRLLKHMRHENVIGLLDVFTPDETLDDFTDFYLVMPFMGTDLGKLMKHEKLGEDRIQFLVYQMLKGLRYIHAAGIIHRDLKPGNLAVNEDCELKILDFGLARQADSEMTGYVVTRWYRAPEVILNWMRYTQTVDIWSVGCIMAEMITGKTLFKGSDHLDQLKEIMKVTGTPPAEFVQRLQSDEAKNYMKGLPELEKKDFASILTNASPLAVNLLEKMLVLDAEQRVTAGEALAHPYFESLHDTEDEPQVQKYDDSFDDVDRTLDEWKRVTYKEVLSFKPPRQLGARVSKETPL
The method in brief: as §1

The next assay concerns the target T5, PKCζ(h) (Homo sapiens, UniProt Q05513).
T5 sequence (Q05513 1-592): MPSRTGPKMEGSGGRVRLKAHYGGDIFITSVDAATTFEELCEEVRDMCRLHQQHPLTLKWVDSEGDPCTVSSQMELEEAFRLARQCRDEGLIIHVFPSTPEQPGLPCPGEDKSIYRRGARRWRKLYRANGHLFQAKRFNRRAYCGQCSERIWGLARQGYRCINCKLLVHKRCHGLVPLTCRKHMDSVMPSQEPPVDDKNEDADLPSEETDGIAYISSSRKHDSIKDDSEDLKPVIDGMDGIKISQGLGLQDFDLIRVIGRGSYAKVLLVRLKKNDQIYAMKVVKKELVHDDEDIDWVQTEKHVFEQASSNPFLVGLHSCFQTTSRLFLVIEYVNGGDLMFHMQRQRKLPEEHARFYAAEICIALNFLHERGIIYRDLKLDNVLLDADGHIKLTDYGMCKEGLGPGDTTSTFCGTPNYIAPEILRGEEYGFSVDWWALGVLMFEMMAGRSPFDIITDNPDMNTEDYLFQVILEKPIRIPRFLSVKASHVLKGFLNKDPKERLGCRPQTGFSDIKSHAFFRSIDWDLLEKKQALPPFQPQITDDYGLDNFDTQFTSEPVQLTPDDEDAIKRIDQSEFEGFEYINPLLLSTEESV
Put shortly:
as §1

The target of another assay is Abl(T315I)(h) (Homo sapiens, UniProt P00519, T315I). The method in brief:
as §1

For another assay, the target named is EGFR(L858R)(h) (Homo sapiens, UniProt P00533, L858R). The method in brief: as §1
In the next assay the target is FAK(h) (Homo sapiens, UniProt Q05397). The method in brief: as §1

Chain of Pim-1(h) (P11309 whole entry): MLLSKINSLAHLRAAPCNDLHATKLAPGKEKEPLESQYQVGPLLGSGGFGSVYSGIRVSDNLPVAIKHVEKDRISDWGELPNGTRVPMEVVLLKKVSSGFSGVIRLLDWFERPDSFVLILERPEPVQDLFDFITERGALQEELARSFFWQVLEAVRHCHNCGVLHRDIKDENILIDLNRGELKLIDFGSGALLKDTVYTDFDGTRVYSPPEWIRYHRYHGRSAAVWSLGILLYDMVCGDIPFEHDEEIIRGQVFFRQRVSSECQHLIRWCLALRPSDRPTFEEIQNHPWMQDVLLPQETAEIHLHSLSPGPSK
Chain of Arg(h) (P42684 whole entry): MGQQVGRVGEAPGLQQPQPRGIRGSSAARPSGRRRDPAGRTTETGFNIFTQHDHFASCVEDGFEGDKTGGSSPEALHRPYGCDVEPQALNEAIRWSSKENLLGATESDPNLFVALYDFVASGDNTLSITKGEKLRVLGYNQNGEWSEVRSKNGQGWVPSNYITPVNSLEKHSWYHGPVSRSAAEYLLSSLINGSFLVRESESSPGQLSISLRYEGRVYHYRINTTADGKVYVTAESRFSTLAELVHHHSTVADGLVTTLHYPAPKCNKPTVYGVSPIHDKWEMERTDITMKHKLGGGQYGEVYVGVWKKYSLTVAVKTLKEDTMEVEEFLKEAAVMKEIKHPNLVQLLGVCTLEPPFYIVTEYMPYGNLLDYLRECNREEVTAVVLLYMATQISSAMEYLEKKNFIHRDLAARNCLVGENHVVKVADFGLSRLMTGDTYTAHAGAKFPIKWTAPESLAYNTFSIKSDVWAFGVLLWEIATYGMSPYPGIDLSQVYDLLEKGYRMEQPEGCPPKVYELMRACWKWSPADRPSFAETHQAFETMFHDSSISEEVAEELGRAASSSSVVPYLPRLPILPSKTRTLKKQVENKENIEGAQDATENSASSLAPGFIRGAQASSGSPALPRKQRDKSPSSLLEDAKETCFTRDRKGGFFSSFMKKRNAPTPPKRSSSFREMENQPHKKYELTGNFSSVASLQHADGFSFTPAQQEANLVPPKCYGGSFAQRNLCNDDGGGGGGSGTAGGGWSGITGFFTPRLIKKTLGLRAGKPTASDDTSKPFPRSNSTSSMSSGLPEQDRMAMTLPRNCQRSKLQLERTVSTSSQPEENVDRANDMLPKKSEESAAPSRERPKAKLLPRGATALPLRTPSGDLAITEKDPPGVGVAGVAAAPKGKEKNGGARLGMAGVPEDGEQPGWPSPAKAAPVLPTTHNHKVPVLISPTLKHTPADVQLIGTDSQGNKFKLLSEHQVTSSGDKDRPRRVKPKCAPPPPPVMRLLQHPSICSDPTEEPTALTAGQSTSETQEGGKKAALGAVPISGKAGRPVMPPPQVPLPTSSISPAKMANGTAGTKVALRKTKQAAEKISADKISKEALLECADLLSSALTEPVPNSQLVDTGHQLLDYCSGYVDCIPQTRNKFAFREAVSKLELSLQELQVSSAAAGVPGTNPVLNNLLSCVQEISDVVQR
Chain of PDGFRα(V561D)(h) (P16234 24-1089 V561D): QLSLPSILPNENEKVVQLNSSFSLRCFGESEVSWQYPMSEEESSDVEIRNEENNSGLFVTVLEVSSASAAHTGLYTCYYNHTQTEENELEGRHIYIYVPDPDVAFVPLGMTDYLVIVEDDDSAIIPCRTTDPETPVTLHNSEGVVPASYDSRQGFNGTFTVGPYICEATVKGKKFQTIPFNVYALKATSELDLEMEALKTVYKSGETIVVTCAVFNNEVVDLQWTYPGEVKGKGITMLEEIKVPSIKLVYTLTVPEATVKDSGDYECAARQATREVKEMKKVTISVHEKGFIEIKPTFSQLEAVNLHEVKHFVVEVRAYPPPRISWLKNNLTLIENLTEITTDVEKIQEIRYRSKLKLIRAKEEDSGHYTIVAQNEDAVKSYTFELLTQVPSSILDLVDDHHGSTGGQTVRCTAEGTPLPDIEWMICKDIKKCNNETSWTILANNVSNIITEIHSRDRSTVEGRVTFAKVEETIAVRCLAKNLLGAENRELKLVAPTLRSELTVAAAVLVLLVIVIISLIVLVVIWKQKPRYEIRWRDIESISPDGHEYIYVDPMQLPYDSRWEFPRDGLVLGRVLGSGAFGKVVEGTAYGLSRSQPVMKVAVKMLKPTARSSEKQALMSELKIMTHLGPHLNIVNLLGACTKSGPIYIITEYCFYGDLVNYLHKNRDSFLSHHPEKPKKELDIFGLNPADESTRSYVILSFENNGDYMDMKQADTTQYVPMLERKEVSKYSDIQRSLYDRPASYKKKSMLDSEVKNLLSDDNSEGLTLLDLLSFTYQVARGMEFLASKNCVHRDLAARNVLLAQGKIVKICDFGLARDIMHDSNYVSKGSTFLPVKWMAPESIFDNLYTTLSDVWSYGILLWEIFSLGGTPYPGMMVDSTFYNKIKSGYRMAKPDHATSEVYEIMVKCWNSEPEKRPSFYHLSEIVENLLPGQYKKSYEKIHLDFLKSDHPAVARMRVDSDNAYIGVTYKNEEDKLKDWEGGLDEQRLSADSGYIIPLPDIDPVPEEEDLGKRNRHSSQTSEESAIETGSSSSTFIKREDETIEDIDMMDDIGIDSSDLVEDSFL
T1 sequence (O75582 whole entry): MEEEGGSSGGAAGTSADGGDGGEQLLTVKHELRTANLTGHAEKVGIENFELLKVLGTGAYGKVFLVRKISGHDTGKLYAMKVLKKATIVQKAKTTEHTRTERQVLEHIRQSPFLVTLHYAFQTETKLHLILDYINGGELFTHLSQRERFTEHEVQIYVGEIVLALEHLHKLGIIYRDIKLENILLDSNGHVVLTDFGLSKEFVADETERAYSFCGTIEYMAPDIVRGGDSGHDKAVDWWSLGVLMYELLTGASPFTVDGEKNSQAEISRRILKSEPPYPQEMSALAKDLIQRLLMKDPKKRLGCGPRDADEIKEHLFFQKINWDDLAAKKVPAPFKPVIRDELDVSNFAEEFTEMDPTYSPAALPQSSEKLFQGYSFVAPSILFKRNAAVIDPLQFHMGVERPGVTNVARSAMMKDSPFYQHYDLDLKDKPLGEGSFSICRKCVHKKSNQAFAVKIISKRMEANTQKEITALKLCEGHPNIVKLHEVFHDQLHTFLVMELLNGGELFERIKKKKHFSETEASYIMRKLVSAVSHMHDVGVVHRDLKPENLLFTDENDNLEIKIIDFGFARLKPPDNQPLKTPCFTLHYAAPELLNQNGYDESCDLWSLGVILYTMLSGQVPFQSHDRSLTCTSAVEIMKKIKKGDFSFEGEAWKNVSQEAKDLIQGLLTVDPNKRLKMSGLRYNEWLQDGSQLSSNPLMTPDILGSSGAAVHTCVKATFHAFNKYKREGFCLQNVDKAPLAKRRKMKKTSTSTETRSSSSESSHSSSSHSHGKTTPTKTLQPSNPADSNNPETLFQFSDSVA
Chain of CLK3(h) (P49761 whole entry): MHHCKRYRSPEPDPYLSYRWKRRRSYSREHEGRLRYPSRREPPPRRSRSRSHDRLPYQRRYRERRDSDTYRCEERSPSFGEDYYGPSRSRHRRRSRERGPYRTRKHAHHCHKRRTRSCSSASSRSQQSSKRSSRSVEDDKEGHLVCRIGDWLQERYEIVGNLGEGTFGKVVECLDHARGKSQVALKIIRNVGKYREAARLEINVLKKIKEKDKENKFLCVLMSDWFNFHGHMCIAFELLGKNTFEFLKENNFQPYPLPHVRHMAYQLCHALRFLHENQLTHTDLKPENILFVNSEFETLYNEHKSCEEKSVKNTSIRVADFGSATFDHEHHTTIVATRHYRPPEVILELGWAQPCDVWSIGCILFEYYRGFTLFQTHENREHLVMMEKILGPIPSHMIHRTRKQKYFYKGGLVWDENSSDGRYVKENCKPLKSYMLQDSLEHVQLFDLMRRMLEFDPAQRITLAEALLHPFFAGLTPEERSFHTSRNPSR
Chain of Rsk2(h) (P51812 whole entry): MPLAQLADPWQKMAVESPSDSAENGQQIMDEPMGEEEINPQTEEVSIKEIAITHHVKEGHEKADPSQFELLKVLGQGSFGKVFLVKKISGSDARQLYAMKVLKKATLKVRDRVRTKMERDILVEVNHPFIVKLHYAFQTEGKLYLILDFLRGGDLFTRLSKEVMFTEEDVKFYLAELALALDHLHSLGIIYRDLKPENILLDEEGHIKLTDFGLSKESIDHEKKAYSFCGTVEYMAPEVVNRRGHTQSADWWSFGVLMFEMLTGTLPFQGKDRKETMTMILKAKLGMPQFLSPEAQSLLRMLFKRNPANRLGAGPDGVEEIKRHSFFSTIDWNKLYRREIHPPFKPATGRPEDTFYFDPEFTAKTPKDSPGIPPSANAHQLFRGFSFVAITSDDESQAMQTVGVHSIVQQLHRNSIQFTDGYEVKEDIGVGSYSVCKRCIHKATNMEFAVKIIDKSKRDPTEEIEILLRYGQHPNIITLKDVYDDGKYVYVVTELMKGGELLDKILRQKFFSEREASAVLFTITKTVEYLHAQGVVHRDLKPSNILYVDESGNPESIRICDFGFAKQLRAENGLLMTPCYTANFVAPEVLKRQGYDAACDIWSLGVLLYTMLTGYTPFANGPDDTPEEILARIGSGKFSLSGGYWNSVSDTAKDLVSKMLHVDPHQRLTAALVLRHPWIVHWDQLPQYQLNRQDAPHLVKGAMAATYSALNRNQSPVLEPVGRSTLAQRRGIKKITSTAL

Consider FAKLAARLYRKALARQLGVAA [MMI-0300], for which the “% activity” value with MSK1(h) is on record as 32%; with Syk(h), 24%; with SGK(h) it was 48%; in the assay with CLK3(h), 61%; in the assay with Arg(h), 72%; with Pim-1(h), 8%. Moreover, the “% activity” value with PDGFRα(V561D)(h) was 82%; with Ret(h), 140%; with Rsk2(h) it was 51%; with SAPK3(h), 84%; in the assay with PKCζ(h), 81%; with Abl(T315I)(h) it was 97%.

In the case of “HRRIKAWLKKIKALARQLGVAA (Mammal) [MMI-0500]”, the “% activity” value with MSK1(h) stood at 8%; with Syk(h), 5%; with SGK(h) it was 2%; in the assay with EGFR(L858R)(h), 26%; with CLK3(h) it was 76%; in the assay with Arg(h) it was 22%. The “% activity” value with Pim-1(h) came out at 0%; in the assay with PDGFRα(V561D)(h), 146%; in the assay with Ret(h), 174%; with FAK(h), 94%; in the assay with Rsk2(h), 14%; with SAPK3(h), 24%. The “% activity” value stood at 7% with PKCζ(h) and 16% in the assay with Abl(T315I)(h).

For the sequence KAFAKLAARLYRKALARQLGVAA [MMI-0400], the “% activity” value is on record as 28% in the assay with MSK1(h); 9% with Syk(h); 54% with SGK(h); 52% with EGFR(L858R)(h); 84% with CLK3(h); 84% with Arg(h). The “% activity” value with Pim-1(h) is recorded as 7%; with PDGFRα(V561D)(h) it was 100%; with Ret(h) it was 145%; with FAK(h), 96%; in the assay with Rsk2(h), 38%; with SAPK3(h), 79%. The “% activity” value with PKCζ(h) stood at 75%.

As for YARAAARQARAKALARQLGVAA [MMI-0100], the “% activity” value at SGK(h) came out at 128%; at EGFR(L858R)(h) it was 76%; at CLK3(h), 108%; at Ret(h) it was 108%; at PKCζ(h), 82%; at Abl(T315I)(h), 98%.

Take “YARAAARQARAKALNRQLGVA (Mammal) [MMI-0200]”: the “% activity” value was 50% in the assay with MSK1(h); 36% with Syk(h); 120% in the assay with EGFR(L858R)(h); 76% with CLK3(h); 82% in the assay with Arg(h); 18% with Pim-1(h). Moreover, the “% activity” value is on record as 96% in the assay with Ret(h); 110% with FAK(h); 101% with Rsk2(h); 97% with SAPK3(h); 98% with PKCζ(h); 108% in the assay with Abl(T315I)(h).
